Square brackets hold non-standard residues; d marks the D form. Peptide text beside a SMILES is read from it. * marks the point of attachment. X3 = O=C(CCCCCNCc1nc2c(sc3cc(Br)cnc32)c(=O)[nH]1)*
Columns and labels:
Assay in all cases: Kinase profiling (radiometric filter-binding)
Format in all cases: biochemical
PAK4 = PAK4 (Homo sapiens, UniProt O96013); conditions: PAK4, 1 µM inhibitor; read-out: Residual activity, %
How it was run: (§1)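 Each compound, at 1 µM final, is screened against human protein kinases in a radiometric filter-binding format. ATP is set at or under the KM of each kinase. Values give retained activity relative to a control lacking inhibitor.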

p38 MAPK = p38 MAPK (Homo sapiens, UniProt Q15759); conditions: second of four lines (Greek letter lost), 1 µM inhibitor, read-out: Residual activity, %
Chain of p38 MAPK (Q15759 whole entry): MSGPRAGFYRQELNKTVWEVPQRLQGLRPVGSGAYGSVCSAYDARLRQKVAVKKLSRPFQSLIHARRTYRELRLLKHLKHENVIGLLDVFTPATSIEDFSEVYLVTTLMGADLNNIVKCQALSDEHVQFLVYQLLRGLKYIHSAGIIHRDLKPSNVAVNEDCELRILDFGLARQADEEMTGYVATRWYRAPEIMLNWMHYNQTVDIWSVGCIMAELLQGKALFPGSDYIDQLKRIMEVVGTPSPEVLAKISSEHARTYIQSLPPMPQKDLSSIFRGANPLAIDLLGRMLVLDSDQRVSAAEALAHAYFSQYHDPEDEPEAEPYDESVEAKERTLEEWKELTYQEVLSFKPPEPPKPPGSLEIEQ
How it was run: as §1

PKA = PKA (Homo sapiens, UniProt P17612); conditions: 1 µM inhibitor, read-out: Residual activity, %
How it was run: as §1

CDK2-Cyclin A = CDK2-Cyclin A (Homo sapiens, UniProt P24941); conditions: 1 µM inhibitor, read-out: Residual activity, %
How it was run: as §1

ERK8 = target: T1, ERK8 (Homo sapiens, UniProt Q8TD08); conditions: ERK8, 1 µM inhibitor; read-out: Residual activity, %
T1 sequence (Q8TD08 1-544): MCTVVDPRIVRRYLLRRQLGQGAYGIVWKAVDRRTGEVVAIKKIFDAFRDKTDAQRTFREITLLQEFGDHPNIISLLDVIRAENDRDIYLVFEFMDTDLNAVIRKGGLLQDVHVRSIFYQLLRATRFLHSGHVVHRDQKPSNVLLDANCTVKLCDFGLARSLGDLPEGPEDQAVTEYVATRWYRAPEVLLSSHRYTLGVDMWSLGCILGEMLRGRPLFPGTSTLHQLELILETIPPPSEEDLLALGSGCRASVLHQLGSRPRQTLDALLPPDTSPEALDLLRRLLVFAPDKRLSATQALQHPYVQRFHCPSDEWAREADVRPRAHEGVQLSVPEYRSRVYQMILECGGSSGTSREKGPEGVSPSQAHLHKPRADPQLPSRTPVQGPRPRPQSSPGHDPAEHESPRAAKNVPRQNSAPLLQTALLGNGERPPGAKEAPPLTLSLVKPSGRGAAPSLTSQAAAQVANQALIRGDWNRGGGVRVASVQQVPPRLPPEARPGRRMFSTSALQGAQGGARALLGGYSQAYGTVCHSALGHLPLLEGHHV
How it was run: as §1

PAK6 = PAK6 (Homo sapiens, UniProt Q9NQU5); conditions: PAK6, 1 µM inhibitor; read-out: Residual activity, %
Chain of PAK6 (Q9NQU5 whole entry): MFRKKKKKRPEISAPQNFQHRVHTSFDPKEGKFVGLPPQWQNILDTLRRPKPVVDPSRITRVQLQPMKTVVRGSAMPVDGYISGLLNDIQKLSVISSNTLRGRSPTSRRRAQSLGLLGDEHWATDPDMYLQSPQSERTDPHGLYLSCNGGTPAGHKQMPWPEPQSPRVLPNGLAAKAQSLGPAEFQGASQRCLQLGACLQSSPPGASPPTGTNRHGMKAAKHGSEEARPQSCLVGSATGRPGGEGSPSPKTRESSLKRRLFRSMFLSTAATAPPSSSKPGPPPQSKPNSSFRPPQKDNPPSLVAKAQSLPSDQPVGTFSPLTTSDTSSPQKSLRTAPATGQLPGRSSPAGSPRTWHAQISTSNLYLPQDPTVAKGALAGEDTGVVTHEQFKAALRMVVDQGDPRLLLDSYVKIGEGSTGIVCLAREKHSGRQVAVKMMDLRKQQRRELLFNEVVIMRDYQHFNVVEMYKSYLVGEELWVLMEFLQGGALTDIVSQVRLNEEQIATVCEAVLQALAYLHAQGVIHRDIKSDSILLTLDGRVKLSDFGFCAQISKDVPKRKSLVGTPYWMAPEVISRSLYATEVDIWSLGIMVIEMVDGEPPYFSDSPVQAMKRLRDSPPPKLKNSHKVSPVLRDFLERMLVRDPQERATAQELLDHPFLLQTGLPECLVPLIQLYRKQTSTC
How it was run: as §1

NEK2 = target: T2, NEK2 (Homo sapiens, UniProt P51955); conditions: NEK2 (letter lost), 1 µM inhibitor; read-out: Residual activity, %
T2 sequence (P51955 1-445): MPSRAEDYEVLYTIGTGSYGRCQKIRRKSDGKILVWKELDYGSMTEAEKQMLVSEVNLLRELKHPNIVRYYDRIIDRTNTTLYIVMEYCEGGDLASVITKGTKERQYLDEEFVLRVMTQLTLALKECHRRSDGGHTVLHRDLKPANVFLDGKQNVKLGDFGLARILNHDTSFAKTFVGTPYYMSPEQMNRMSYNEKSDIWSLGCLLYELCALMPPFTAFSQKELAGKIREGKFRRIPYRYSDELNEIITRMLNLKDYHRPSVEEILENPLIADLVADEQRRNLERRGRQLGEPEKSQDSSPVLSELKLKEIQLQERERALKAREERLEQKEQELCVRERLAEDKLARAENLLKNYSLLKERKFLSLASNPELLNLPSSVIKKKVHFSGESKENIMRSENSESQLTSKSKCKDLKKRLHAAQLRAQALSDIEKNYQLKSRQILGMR
How it was run: as §1

HIPK3 = HIPK3 (Homo sapiens, UniProt Q9H422); conditions: HIPK3, 1 µM inhibitor; read-out: Residual activity, %
Chain of HIPK3 (Q9H422 whole entry): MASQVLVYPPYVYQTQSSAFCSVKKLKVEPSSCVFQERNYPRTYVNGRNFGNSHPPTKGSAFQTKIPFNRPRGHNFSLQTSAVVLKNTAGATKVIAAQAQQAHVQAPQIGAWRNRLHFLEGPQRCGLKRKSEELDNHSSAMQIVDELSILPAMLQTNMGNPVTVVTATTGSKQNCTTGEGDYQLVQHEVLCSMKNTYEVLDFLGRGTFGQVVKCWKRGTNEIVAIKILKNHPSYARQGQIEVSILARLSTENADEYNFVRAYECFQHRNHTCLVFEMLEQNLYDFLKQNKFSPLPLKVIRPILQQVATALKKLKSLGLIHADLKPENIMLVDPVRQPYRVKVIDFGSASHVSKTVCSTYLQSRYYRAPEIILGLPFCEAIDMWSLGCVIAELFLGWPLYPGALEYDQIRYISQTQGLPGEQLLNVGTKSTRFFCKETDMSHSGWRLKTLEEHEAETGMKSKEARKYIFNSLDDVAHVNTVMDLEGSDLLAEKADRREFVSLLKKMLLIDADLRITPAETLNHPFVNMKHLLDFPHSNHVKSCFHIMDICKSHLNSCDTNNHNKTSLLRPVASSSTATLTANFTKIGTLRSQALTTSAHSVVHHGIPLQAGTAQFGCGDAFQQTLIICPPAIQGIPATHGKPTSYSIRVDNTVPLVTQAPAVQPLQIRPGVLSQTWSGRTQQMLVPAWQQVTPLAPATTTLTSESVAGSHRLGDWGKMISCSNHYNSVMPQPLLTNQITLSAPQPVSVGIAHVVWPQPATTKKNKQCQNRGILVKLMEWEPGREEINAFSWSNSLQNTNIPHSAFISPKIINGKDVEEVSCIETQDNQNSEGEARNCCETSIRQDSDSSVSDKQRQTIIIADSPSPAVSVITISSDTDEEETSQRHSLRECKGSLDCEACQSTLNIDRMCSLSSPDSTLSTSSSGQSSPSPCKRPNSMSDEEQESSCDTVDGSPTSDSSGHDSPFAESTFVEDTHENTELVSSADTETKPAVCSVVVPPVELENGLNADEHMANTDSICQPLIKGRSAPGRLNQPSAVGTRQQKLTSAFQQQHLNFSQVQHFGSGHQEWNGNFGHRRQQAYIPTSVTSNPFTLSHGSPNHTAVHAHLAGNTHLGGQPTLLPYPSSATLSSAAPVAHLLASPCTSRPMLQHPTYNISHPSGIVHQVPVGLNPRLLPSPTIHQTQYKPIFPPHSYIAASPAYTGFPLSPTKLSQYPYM
How it was run: as §1

BRSK1 = target: T3, BRSK1 (Homo sapiens, UniProt Q8TDC3); conditions: BRSK1, 1 µM inhibitor; read-out: Residual activity, %
T3 sequence (Q8TDC3 1-778): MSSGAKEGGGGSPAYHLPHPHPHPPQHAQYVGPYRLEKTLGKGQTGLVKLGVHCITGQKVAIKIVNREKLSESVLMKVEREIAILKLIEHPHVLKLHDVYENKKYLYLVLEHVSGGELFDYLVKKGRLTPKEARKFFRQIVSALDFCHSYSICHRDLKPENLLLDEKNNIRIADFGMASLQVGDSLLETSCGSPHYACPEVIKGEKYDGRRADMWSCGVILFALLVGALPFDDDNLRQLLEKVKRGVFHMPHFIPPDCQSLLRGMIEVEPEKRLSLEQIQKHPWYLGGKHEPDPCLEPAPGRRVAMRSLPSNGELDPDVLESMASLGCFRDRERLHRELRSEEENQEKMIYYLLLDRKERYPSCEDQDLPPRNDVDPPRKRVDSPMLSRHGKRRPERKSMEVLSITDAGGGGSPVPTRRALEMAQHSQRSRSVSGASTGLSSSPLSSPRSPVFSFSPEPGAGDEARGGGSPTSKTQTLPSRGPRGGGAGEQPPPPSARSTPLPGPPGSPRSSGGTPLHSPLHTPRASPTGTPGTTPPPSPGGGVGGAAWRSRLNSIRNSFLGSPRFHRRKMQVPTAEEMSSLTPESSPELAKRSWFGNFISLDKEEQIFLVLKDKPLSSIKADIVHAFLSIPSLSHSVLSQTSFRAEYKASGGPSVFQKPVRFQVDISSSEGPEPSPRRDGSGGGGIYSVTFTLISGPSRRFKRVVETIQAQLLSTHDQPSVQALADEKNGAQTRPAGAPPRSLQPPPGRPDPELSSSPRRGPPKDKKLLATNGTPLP
How it was run: as §1

Chain of PAK4 (O96013 whole entry): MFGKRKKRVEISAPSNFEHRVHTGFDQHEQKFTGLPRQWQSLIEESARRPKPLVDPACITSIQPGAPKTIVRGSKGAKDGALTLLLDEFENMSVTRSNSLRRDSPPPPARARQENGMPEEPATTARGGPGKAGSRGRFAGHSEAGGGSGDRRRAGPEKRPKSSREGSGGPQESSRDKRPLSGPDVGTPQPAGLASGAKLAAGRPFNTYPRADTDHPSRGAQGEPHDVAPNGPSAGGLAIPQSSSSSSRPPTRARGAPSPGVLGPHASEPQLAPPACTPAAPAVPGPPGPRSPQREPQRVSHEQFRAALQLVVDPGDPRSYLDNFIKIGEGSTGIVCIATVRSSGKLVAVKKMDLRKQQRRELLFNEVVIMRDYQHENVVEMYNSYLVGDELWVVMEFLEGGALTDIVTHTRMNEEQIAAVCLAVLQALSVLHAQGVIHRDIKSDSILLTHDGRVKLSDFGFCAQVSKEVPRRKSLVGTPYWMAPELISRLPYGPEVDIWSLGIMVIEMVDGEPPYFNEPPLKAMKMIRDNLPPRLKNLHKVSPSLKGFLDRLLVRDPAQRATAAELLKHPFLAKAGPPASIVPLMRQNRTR

Row | SMILES | remaining activity at 1 µM (PAK4) [%] | remaining activity at 1 µM (p38 MAPK) [%] | remaining activity at 1 µM (PKA) [%] | remaining activity at 1 µM (CDK2-Cyclin A) [%] | remaining activity at 1 µM (ERK8) [%] | remaining activity at 1 µM (PAK6) [%] | remaining activity at 1 µM (NEK2) [%] | remaining activity at 1 µM (HIPK3) [%] | remaining activity at 1 µM (BRSK1) [%]
1 | N=C(N)NCCC[C@@H](NC(=O)CCCCCNC(=O)Cn1cnc2c(I)c(I)c(I)c(I)c21)C(=O)N[C@H](CCCNC(=N)N)C(=O)N[C@H](CCCNC(=N)N)C(=O)N[C@H](CCCNC(=N)N)C(=O)N[C@H](CCCNC(=N)N)C(=O)N[C@H](CCCNC(=N)N)C(=O)N[C@H](CCCCN)C(N)=O [ARC-3125, TIBI-CH2-C(=O)-Ahx-(D-Arg)6-D-Lys-NH2] | 50 ± 2 | 80 ± 6 | 7 ± 3 | 17 ± 1 | 18 ± 9 | 34 ± 11 | 21 ± 3 | 21 | 84 ± 2
2 | N=C(N)NCCC[C@@H](NC(=O)CNC(=O)[C@@H](CCCNC(=N)N)NC(=O)[C@@H](CCCNC(=N)N)NC(=O)CCCCCCCNCc1nc2c(sc3cc(Br)cnc32)c(=O)[nH]1)C(=O)N[C@H](CCCCN)C(N)=O [Compound 1, BPTP-Aoc-(D-Arg)2-Gly-D-Arg-D-Lys-NH2] | 91 | 108 ± 14 | 100 ± 9 | 106 ± 12 | 109 ± 8 | 119 ± 8 | 108 ± 5 | 116 ± 15 | 107 ± 5
3 | N=C(N)NCCC[C@@H](NC(=O)CNC(=O)[C@@H](CCCNC(=N)N)NC(=O)[C@@H](CCCNC(=N)N)NC(=O)CCCCCCCNCc1nc2c(sc3ccc(Br)cc32)c(=O)[nH]1)C(=O)N[C@H](CCCCN)C(N)=O [Compound 2, BBTP-Aoc-(D-Arg)2-Gly-D-Arg-D-Lys-NH2] | 98 ± 14 | 113 ± 4 | 85 ± 6 | 105 ± 9 | 78 ± 17 | 110 ± 15 | 119 ± 12 | 72 ± 12 | 101
4 | N=C(N)NCCC[C@@H](NC(=O)CCCCCNCc1nc2c(sc3cc(Br)cnc32)c(=O)[nH]1)C(=O)N[C@H](CCCNC(=N)N)C(=O)N[C@H](CCCNC(=N)N)C(=O)N[C@H](CCCNC(=N)N)C(=O)N[C@H](CCCNC(=N)N)C(=O)N[C@H](CCCNC(=N)N)C(=O)N[C@H](CCCCN)C(N)=O [ARC-3126, BPTP-Ahx-(D-Arg)6-D-Lys-NH2] (X3-[dR][dR][dR][dR][dR][dR][dK]-NH2) | 71 ± 42 | 94 ± 4 | 97 | 106 ± 5 | 49 ± 30 | 103 ± 5 | 91 ± 2 | 93 ± 2 | 50 ± 10
5 | N=C(N)NCCC[C@@H](NC(=O)CNC(=O)[C@@H](CCCNC(=N)N)NC(=O)[C@@H](CCCNC(=N)N)NC(=O)Cn1cc(CNCc2nc3c(sc4ccc(Br)cc43)c(=O)[nH]2)nn1)C(=O)N[C@H](CCCCN)C(N)=O [Compound 3, BBTP-Amt-(D-Arg)2-Gly-D-Arg-D-Lys-NH2] | 77 ± 13 | 100 ± 6 | 82 ± 10 | 100 | 83 ± 2 | 86 ± 8 | 92 ± 1 | 57 ± 7 | 90 ± 11

From article PMC8307404, “Crystal Structure-Guided Design of Bisubstrate Inhibitors and Photoluminescent Probes for Protein Kinases of the PIM Family” (Molecules, 2021)
